# B1: recombinant human PDGFRA extracellular domain fused with IgG Fc (rhRA-ECD-Fc) (Fc fusion, UniProt P16234 24-528, looked up)
# chain: QLSLPSILPNENEKVVQLNSSFSLRCFGESEVSWQYPMSEEESSDVEIRNEENNSGLFVTVLEVSSASAAHTGLYTCYYNHTQTEENELEGRHIYIYVPDPDVAFVPLGMTDYLVIVEDDDSAIIPCRTTDPETPVTLHNSEGVVPASYDSRQGFNGTFTVGPYICEATVKGKKFQTIPFNVYALKATSELDLEMEALKTVYKSGETIVVTCAVFNNEVVDLQWTYPGEVKGKGITMLEEIKVPSIKLVYTLTVPEATVKDSGDYECAARQATREVKEMKKVTISVHEKGFIEIKPTFSQLEAVNLHEVKHFVVEVRAYPPPRISWLKNNLTLIENLTEITTDVEKIQEIRYRSKLKLIRAKEEDSGHYTIVAQNEDAVKSYTFELLTQVPSSILDLVDDHHGSTGGQTVRCTAEGTPLPDIEWMICKDIKKCNNETSWTILANNVSNIITEIHSRDRSTVEGRVTFAKVEETIAVRCLAKNLLGAENRELKLVAPTLRSELTVA
# notes: Platelet-derived growth factor receptor alpha (PDGFRA), human, extracellular domain; Species and subclass of the IgG Fc, construct limits and supplier are not in the main text; also called recombinant PDGFRA extracellular domain; source: recombinant human protein
# Target: T1, recombinant human PDGF-AA (human, UniProt P04085 87-211)
# T1 construct: Platelet-derived growth factor subunit A (PDGFA), human, recombinant homodimer PDGF-AA; Added to cells at 100 ng/ml; Commercial PDGF-AA is normally the mature chain; also called recombinant human PDGFA homodimer; source: recombinant human protein
# Assay: ITC; Microcal iTC200; recombinant human receptor extracellular domain and recombinant human PDGF-AA
# Settings: both partners purified
binder,measurement,value
B1,dH,-1070 ± 117

# — publication PMC8807725, “EPHA2 mediates PDGFA activity and functions together with PDGFRA as prognostic marker and therapeutic target in glioblastoma” (Signal Transduction and Targeted Therapy, 2022)
